Reference: publication PMC11384143, “A pan-allelic human SIRPα-blocking antibody, ES004-B5, promotes tumor killing by enhancing macrophage phagocytosis and subsequently inducing an effective T-cell response” (Antibody Therapeutics, 2024)

B1: hu1H9 (an analogue of FSI-189, Gilead) (antibody, V domains shown)
VH: QVQLVQSGAEVKKPGASVKVSCKASGYTFTSYWITWVKQAPGQGLEWIGDIYPGSGSTNHIEKFKSKATLTVDTSISTAYMELSRLRSDDTAVYYCATGYGSSYGYFDYWGQGTLVTVSS
VL: DIQMTQSPSSLSASVGDRVTITCRASENIYSYLAWYQQKPGKAPKLLIYTAKTLAEGVPSRFSGSGSGTDFTLTISSLQPEDFATYYCQHQYGPPFTFGQGTKLEIK
notes: human IgG4
B2: HEFLB (an analogue of BI 765063) (antibody, V domains shown)
VH: EVQLVQSGAEVKKPGESLRISCKASGYSFTSYWVHWVRQMPGKGLEWMGNIDPSDSDTHYSPSFQGHVTLSVDKSISTAYLQLSSLKASDTAMYYCVRGGTGTLAYFAYWGQGTLVTVSS
VL: DVVMTQSPLSLPVTLGQPASISCRSSQSLVHSYGNTYLYWFQQRPGQSPRLLIYRVSNRFSGVPDRFSGSGSGTDFTLKISRVEAEDVGVYYCFQGTHVPYTFGGGTKVEIK
notes: human IgG4; also called analogue of BI 765063 (OSE-172)

Legend:
[1] = target: T1, 6 × His tagged huSIRPγ ECD recombinant protein (Homo sapiens (Human)., UniProt Q9P1W8); experiment: SPR; Biacore T200, 25°C; antibody captured on anti-human IgG (Fc) CM5 chip (80 ± 12 RU); 6 × His tagged SIRP analyte 30–0.9375 nM in 1× HBS-EP+; 1:1 binding model; conditions: both partners purified
T1 construct: signal regulatory protein gamma (SIRPγ, SIRP beta2), human, extracellular domain; also called signal regulatory protein gamma; SIRP beta2; source: bought: KACTUS
T1 sequence (Q9P1W8 29-360): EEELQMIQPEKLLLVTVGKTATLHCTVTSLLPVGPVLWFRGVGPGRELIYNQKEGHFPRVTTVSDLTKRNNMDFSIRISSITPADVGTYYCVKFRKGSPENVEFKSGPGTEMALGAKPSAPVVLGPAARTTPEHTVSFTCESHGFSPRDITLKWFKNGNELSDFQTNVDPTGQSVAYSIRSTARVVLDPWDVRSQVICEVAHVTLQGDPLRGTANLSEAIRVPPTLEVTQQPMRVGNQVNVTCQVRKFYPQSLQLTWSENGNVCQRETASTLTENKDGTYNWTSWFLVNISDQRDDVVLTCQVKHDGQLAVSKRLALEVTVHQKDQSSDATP

[2] = target: T2, 6 × His tagged cynomolgus SIRPα ECD recombinant protein (Macaca fascicularis, UniProt A0A2K5VYQ9); experiment: as above; conditions: both partners purified
T2 construct: signal regulatory protein alpha (SIRPα), cynomolgus monkey, extracellular domain; also called cynomolgus monkey SIRPα; source: bought: KACTUS

[3] = target: T3, cynomolgus SIRPα overexpressed on CHOK1/cSIRPα cells (Macaca fascicularis, UniProt A0A2K5VYQ9); experiment: flow cytometry on cells; serial dilutions of antibody on CHOK1 cells overexpressing SIRPα, 1 h at 4°C; Alexa Fluor 647 anti-human IgG Fcγ secondary antibody; MFI; conditions: one partner purified
T3 construct: signal regulatory protein alpha (SIRPα), cynomolgus monkey, overexpressed on CHO-K1 cells; also called cynomolgus SIRPα-expressing cells; source: CHOK1/cSIRPα cell line, bought: Chempartner

Binder | binding result [1] | binding result [2] | binding result [3]
B1 | binds |  | 
B2 | no binding (tested: 30 nM (highest analyte concentration)) | no binding (tested: 30 nM (highest analyte concentration)) | no binding
